{"source": "paper PMC10816394", "about": "“Radiosynthesis and Bioevaluation of ^99mTc-Labeled Isocyanide Ubiquicidin 29-41 Derivatives as Potential Agents for Bacterial Infection Imaging” (International Journal of Molecular Sciences, 2024)", "origin": "cited, not measured here", "key": {"[1]": {"system": "bacterial infection sites", "design": "method as in PMID 14960656, PMID 10774881, PMID 12900285, PMID 15093821, PMID 11337578", "settings": "literature values; cited from earlier work"}, "[2]": {"settings": "in vivo; cited from earlier work"}}, "note": "No end group written: not given here.", "data": [{"substance": "[^99mTc]Tc-UBI 29-41: directly ^99mTc-labeled UBI 29-41, reported bacterial infection tracer; structure speculated (TGRAKRRMQYNRR; also: directly 99mTc-labeled, no chelator, structure speculative; UniProt P62861 103-115, looked up, fragment)", "values": [{"measurement": "target-to-nontarget ratio at bacterial infection sites", "setting": "[1]", "value": "1.7–4.7"}, {"measurement": "target-to-nontarget ratio at sterile inflammation sites", "setting": "[2]", "value": "1.1–1.2"}]}]}
